{
  "source": "patent US20240262869A1",
  "key": {"[1]": {"target": "neutralizing antibody CR3022"}, "[2]": {"target": "neutralizing antibody CR3022", "remark": "listed apart in the source"}, "[3]": {"target": "neutralizing antibody CR3022", "remark": "listed apart in the source"}},
  "note": "pKd: −log10 of the molar value. Like-named read-outs stand apart in the source and are kept apart here.",
  "data": [
    {"substance": "mInCV02R (SARS CoV-2 RBD N-1) having EIS at the N-terminal (from UniProt P0DTC2 332-532) (ligand)", "values": [
      {"measurement": "pKd", "setting": "[1]", "result": 7.78},
      {"measurement": "pKd", "setting": "[2]", "result": "> 9.00"},
      {"measurement": "pKd", "setting": "[3]", "result": 7.80}
    ]}
  ]
}
